This test concerns the target Aβ1-40 peptide (natural β-amyloid peptide, β-AP1-40). Nature of the test: cell-based or functional assay.

A value given as a limit tells only on which side of the number the result lay.

Sequence of Aβ1-40 peptide (natural β-amyloid peptide, β-AP1-40) (peptide, as listed by the source limits assumed, form in doubt): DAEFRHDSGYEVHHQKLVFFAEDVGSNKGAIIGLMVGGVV

Take “PPI 969: TFA·N-ethyl-(Gaffvl)-NH2 (peptide)”: the Nucleation assay Δlag, 1.25 µM compound (fold of control lag time) is 3; the Nucleation assay Δlag, 2.5 µM compound (fold of control lag time) was over 5; the Nucleation assay Δlag, 5 µM compound (fold of control lag time) is over 5.

For “PPI 992: TFA·H-(lvffa)-isopropylamide (peptide)”, the Nucleation assay Δlag, 1.25 µM compound (fold of control lag time) stood at 1; the Nucleation assay Δlag, 2.5 µM compound (fold of control lag time) was 1; the Nucleation assay Δlag, 5 µM compound (fold of control lag time) stood at 3.

The substance “PPI 1007: TFA·N,N-dimethyl-(lvffl)-NH2 (peptide)” returned a Nucleation assay Δlag, 0.3 µM compound (note *) (fold of control lag time) of 3; a Nucleation assay Δlag, 0.6 µM compound (note #) (fold of control lag time) of 1.5; a Nucleation assay Δlag, 1 µM compound (note *) (fold of control lag time) of 4; a Nucleation assay Δlag, 1.25 µM compound (note #) (fold of control lag time) of 1.5. For the same substance, the Nucleation assay Δlag, 2.5 µM compound (note #) (fold of control lag time) amounted to 1.5 and the Nucleation assay Δlag, 3 µM compound (note *) (fold of control lag time) was determined as 4.

In the case of PPI 1013: TFA·H-(Glvffl)-NH2 (peptide), the Nucleation assay Δlag, 0.6 µM compound (note #) (fold of control lag time) stood at 2; the Nucleation assay Δlag, 1.25 µM compound (note #) (fold of control lag time) is over 3; the Nucleation assay Δlag, 2.5 µM compound (note #) (fold of control lag time) is 2.

With “PPI 1125: 2 TFA·H-lvf-NH-NH-fvl-H (peptide)”, the Nucleation assay data (Δlag), 0.6 µM compound (note *) (fold of control lag time) amounted to 2; the Nucleation assay data (Δlag), 1.25 µM compound (note *) (fold of control lag time) is over 2.5; the Nucleation assay data (Δlag), 2.5 µM compound (note *) (fold of control lag time) is over 2.5.

“PPI 1320: TFA·H-(lf-[F5]f-vl)-NH2 (peptide)” yielded a Nucleation assay data (Δlag), 0.3 µM compound (fold of control lag time) of 1; a Nucleation assay data (Δlag), 1 µM compound (fold of control lag time) of 3; a Nucleation assay data (Δlag), 3 µM compound (fold of control lag time) of over 5.

For “PPI-1019: TFA•N-methyl-(lvffl)-NH2 (peptide)”, the Nucleation assay data (Δlag), 0.6 µM compound (note *) (fold of control lag time) was determined as 2; the Nucleation assay data (Δlag), 1.25 µM compound (note *) (fold of control lag time) is over 2.5; the Nucleation assay data (Δlag), 2.5 µM compound (note *) (fold of control lag time) is over 2.5.

With “PPI-1318: TFA·H-(lf-D-Cha-vl)-NH2 (peptide)”, the Nucleation assay data (Δlag), 0.3 µM compound (fold of control lag time) turned out to be 1; the Nucleation assay data (Δlag), 1 µM compound (fold of control lag time) is 2; the Nucleation assay data (Δlag), 3 µM compound (fold of control lag time) is over 5.
